From the supplement of paper PMC11246515
± gives the standard deviation of the averaged measurements.

Test: total protein half-life in vivo (active degradation + dilution); higher = more stable protein
[1] = wild type E. coli NCM3722, growth: C-lim chemostat, doubling time 3 h
[2] = wild type E. coli NCM3722, growth: C-lim chemostat, doubling time 6 h
[3] = E. coli NCM3722 delta-clpP delta-lon delta-hslV, growth: N-lim chemostat, doubling time 6 h
[4] = E. coli NCM3722 delta-hslV, growth: N-lim chemostat, doubling time 6 h
[5] = E. coli NCM3722 delta-lon, growth: N-lim chemostat, doubling time 6 h
[6] = E. coli NCM3722 delta-smpB, growth: N-lim chemostat, doubling time 6 h
[7] = wild type E. coli NCM3722, growth: C-lim chemostat, doubling time 12 h
[8] = wild type E. coli NCM3722, growth: N-lim chemostat, doubling time 6 h
[9] = wild type E. coli NCM3722, growth: N-lim chemostat, doubling time 12 h
[10] = wild type E. coli NCM3722, growth: P-lim chemostat, doubling time 6 h
[11] = wild type E. coli NCM3722, growth: P-lim chemostat, doubling time 12 h
[12] = E. coli NCM3722 delta-clpP, growth: N-lim chemostat, doubling time 6 h

Sequence | total protein half-life in vivo [1] [h] | total protein half-life in vivo [2] [h] | total protein half-life in vivo [3] [h] | total protein half-life in vivo [4] [h] | total protein half-life in vivo [5] [h] | total protein half-life in vivo [6] [h] | total protein half-life in vivo [7] [h] | total protein half-life in vivo [8] [h] | total protein half-life in vivo [9] [h] | total protein half-life in vivo [10] [h] | total protein half-life in vivo [11] [h] | total protein half-life in vivo [12] [h]
MAAIAFIGLGQMGSPMASNLLQQGHQLRVFDVNAEAVRHLVDKGATPAANPAQAAKDAEFIITMLPNGDLVRNVLFGENGVCEGLSTDALVIDMSTIHPLQTDKLIADMQAKGFSMMDVPVGRTSANAITGTLLLLAGGTAEQVERATPILMAMGSELINAGGPGMGIRVKLINNYMSIALNALSAEAAVLCEALNLPFDVAVKVMSGTAAGKGHFTTSWPNKVLSGDLSPAFMIDLAHKDLGIALDVANQLHVPMPLGAASREVYSQARAAGRGRQDWSAILEQVRVSAGMTAKVKM [P0A9V8] | > 4 | 4.77 ± 1.8 |  |  |  |  |  |  |  |  |  | 
MAAKDRIQAIKQMVANDKKVTVSNLSGIFQVTEETIRRDLEKLEDEGFLTRTYGGAVLNTAMLTENIHFYKRASSFYEEKQLIARKALPFIDNKTTMAADSSSTVMELLKLLQDRSGLTLLTNSAEAIHVLAQSEIKVVSTGGELNKNTLSLQGRITKEIIRRYHVDIMVMSCKGLDINSGALDSNEAEAEIKKTMIRQATEVALLVDHSKFDRKAFVQLADFSHINYIITDKSPGAEWIAFCKDNNIQLVW | 2.93 ± 0.12 | 5.96 ± 0.83 | 5.6 ± 0.062 | 5.31 ± 0.24 | 5.25 ± 1.1 | 5.12 ± 0.069 | 9.64 ± 0.74 | 5.5 ± 0.2 | 9.92 ± 1.1 | 5.45 ± 0.52 | 13 ± 2.9 | 
MAAQGFLLIATFLLVLMVLARPLGSGLARLINDIPLPGTTGVERVLFRALGVSDREMNWKQYLCAILGLNMLGLAVLFFMLLGQHYLPLNPQQLPGLSWDLALNTAVSFVTNTNWQSYSGETTLSYFSQMAGLTVQNFLSAASGIAVIFALIRAFTRQSMSTLGNAWVDLLRITLWVLVPVALLIALFFIQQGALQNFLPYQAVNTVEGAQQLLPMGPVASQEAIKMLGTNGGGFFNANSSHPFENPTALTNFVQMLAIFLIPTALCFAFGEVMGDRRQGRMLLWAMSVIFVICVGVVMWAEVQGNPHLLALGTDSSINMEGKESRFGVLVSSLFAVVTTAASCGAVIAMHDSFTALGGMVPMWLMQIGEVVFGGVGSGLYGMMLFVLLAVFIAGLMIGRTPEYLGKKIDVREMKLTALAILVTPTLVLMGAALAMMTDAGRSAMLNPGPHGFSEVLYAVSSAANNNGSAFAGLSANSPFWNCLLAFCMFVGRFGVIIPVMAIAGSLVSKKSQAASSGTLPTHGPLFVGLLIGTVLLVGALTFIPALALGPVAEYLS |  |  |  |  |  |  |  |  |  | 5.85 |  | 
MAASTFFIPSVNVIGADSLTDAMNMMADYGFTRTLIVTDNMLTKLGMAGDVQKALEERNIFSVIYDGTQPNPTTENVAAGLKLLKENNCDSVISLGGGSPHDCAKGIALVAANGGDIRDYEGVDRSAKPQLPMIAINTTAGTASEMTRFCIITDEARHIKMAIVDKHVTPLLSVNDSSLMIGMPKSLTAATGMDALTHAIEAYVSIAATPITDACALKAVTMIAENLPLAVEDGSNAKAREAMAYAQFLAGMAFNNASLGYVHAMAHQLGGFYNLPHGVCNAVLLPHVQVFNSKVAAARLRDCAAAMGVNVTGKNDAEGAEACINAIRELAKKVDIPAGLRDLNVKEEDFAVLATNALKDACGFTNPIQATHEEIVAIYRAAM |  |  |  |  |  |  |  |  |  | 4.98 | 9.25 ± 2.1 | 
MADEIDAMALYRAWQQLDNGSCAQIRRVSEPDELRDIPAFYRLVQPFGWENPRHQQALLRMVFCLSAGKNVIRHQDKKSEQTTGISLGRALANSGRINERRIFQLIRADRTADMVQLRRLLTHAEPVLDWPLMARMLTWWGKRERQQLLEDFVLTTNKNA |  |  | 5.62 ± 1.1 |  |  |  |  |  |  |  |  | 
MADNKPELQRGLEARHIELIALGGTIGVGLFMGAASTLKWAGPSVLLAYIIAGLFVFFIMRSMGEMLFLEPVTGSFAVYAHRYMSPFFGYLTAWSYWFMWMAVGISEITAIGVYVQFWFPEMAQWIPALIAVALVALANLAAVRLYGEIEFWFAMIKVTTIIVMIVIGLGVIFFGFGNGGQSIGFSNLTEHGGFFAGGWKGFLTALCIVVASYQGVELIGITAGEAKNPQVTLRSAVGKVLWRILIFYVGAIFVIVTIFPWNEIGSNGSPFVLTFAKIGITAAAGIINFVVLTAALSGCNSGMYSCGRMLYALAKNRQLPAAMAKVSRHGVPVAGVAVSIAILLIGSCLNYIIPNPQRVFVYVYSASVLPGMVPWFVILISQLRFRRAHKAAIASHPFRSILFPWANYVTMAFLICVLIGMYFNEDTRMSLFVGIIFMLAVTAIYKVFGLNRHGKAHKLEE |  | 6.82 ± 0.17 | 6.95 | 6.01 ± 0.26 | 5.41 ± 0.71 | 5.99 ± 1.1 | 10.7 | 5.01 | 11.7 | > 8 | 12.7 ± 2.9 | 
MADTRPERRFTRIDRLPPYVFNITAELKMAARRRGEDIIDFSMGNPDGATPPHIVEKLCTVAQRPDTHGYSTSRGIPRLRRAISRWYQDRYDVEIDPESEAIVTIGSKEGLAHLMLATLDHGDTVLVPNPSYPIHIYGAVIAGAQVRSVPLVEGVDFFNELERAIRESYPKPKMMILGFPSNPTAQCVELEFFEKVVALAKRYDVLVVHDLAYADIVYDGWKAPSIMQVPGARDVAVEFFTLSKSYNMAGWRIGFMVGNKTLVSALARIKSYHDYGTFTPLQVAAIAALEGDQQCVRDIAEQYKRRRDVLVKGLHEAGWMVEMPKASMYVWAKIPEPYAAMGSLEFAKKLLNEAKVCVSPGIGFGDYGDTHVRFALIENRDRIRQAIRGIKAMFRADGLLPASSKHIHENAE | 2.43 ± 0.15 | 3.92 ± 0.59 | 4.48 ± 0.37 | 2.21 ± 0.2 | 2.27 ± 0.23 | 2.22 ± 0.062 | 7.44 ± 1.7 | 2.28 ± 0.1 | 2.92 ± 0.049 | 4.75 ± 0.82 | 7.31 ± 0.3 | 4.17 ± 0.25
MAEAQNDPLLPGYSFNAHLVAGLTPIEANGYLDFFIDRPLGMKGYILNLTIRGQGVVKNQGREFVCRPGDILLFPPGEIHHYGRHPEAREWYHQWVYFRPRAYWHEWLNWPSIFANTGFFRPDEAHQPHFSDLFGQIINAGQGEGRYSELLAINLLEQLLLRRMEAINESLHPPMDNRVREACQYISDHLADSNFDIASVAQHVCLSPSRLSHLFRQQLGISVLSWREDQRISQAKLLLSTTRMPIATVGRNVGFDDQLYFSRVFKKCTGASPSEFRAGCEEKVNDVAVKLS [P0A9E0] | 0.747 ± 0.18 | 1.42 ± 0.059 | 5.38 ± 0.2 | 1.21 ± 0.4 | 1.26 ± 0.079 | 0.763 ± 0.18 | 1.81 ± 0.044 | 1.08 ± 0.057 | 1.34 ± 0.25 |  | 1.12 | 1.95
MAEETIFSKIIRREIPSDIVYQDDLVTAFRDISPQAPTHILIIPNILIPTVNDVSAEHEQALGRMITVAAKIAEQEGIAEDGYRLIMNTNRHGGQEVYHIHMHLLGGRPLGPMLAHKGL [P0ACE7] | 3.32 ± 0.21 | 5.24 ± 0.32 |  | 4.88 ± 0.38 |  | 4.71 ± 0.36 | 8.75 ± 1.9 | 4.31 ± 0.051 | 7.64 ± 0.66 | 5.65 ± 0.32 | 12 ± 1.3 | 5.01 ± 0.59
